Experimental data published in patent US20140286983A1.

Columns and labels:
[1] = biological target: DENV-1 VLP mutant K310DE311KP364Q (Dengue virus serotype 1 strain (56)BC94/95; C-terminal 20% Japanese encephalitis virus)
[2] = biological target: DENV-1 VLP mutant P364Q (Dengue virus serotype 1 strain (56)BC94/95; C-terminal 20% Japanese encephalitis virus)
[3] = biological target: DENV-1 VLP mutant G106RL107D (Dengue virus serotype 1 strain (56)BC94/95; C-terminal 20% Japanese encephalitis virus)
[4] = biological target: DENV-1 VLP mutant G106R (Dengue virus serotype 1 strain (56)BC94/95; C-terminal 20% Japanese encephalitis virus)
[5] = biological target: DENV-1 VLP mutant G106RL107DK310DE311KP364Q (pVD1-CRR VLP antigen) (Dengue virus serotype 1 strain (56)BC94/95; C-terminal 20% Japanese encephalitis virus)
[6] = biological target: DENV-1 VLP mutant E311K (Dengue virus serotype 1 strain (56)BC94/95; C-terminal 20% Japanese encephalitis virus)
[7] = biological target: DENV-1 VLP mutant L107D (Dengue virus serotype 1 strain (56)BC94/95; C-terminal 20% Japanese encephalitis virus)
[8] = biological target: DENV-1 VLP mutant K310D (Dengue virus serotype 1 strain (56)BC94/95; C-terminal 20% Japanese encephalitis virus)
[9] = biological target: DENV-1 virus (strain 56BC94/95) (Dengue virus serotype 1 strain 56BC94/95); test: cell-based or functional assay
[10] = biological target: DENV-3 virus (strain 116RC1396) (Dengue virus serotype 3 strain 116RC1396); test: cell-based or functional assay
[11] = biological target: DENV-2 virus (strain 16681) (Dengue virus serotype 2 strain 16681) (UniProt P29990); test: cell-based or functional assay
[12] = biological target: DENV-4 virus (strain 130) (Dengue virus serotype 4 strain 130); test: cell-based or functional assay

Row | Substance | percent of remaining reactivity compared to WT [1] | percent of remaining reactivity compared to WT [2] | percent of remaining reactivity compared to WT [3] | percent of remaining reactivity compared to WT [4] | percent of remaining reactivity compared to WT [5] | percent of remaining reactivity compared to WT [6] | percent of remaining reactivity compared to WT [7] | percent of remaining reactivity compared to WT [8] | Nt50 (µg/mL), FRµNT [9] | Nt50 (µg/mL), FRµNT [10] | Nt50 (µg/mL), FRµNT [11] | Nt50 (µg/mL), FRµNT [12]
1 | MAb 1A1D-2 (antibody) | < 0.8% | 100% | 100% | 25% | < 0.1% | 50% | 100% | 1.5% | 1.68 µg/mL | 1.26 µg/mL | 0.46 µg/mL | > 20 µg/mL
2 | MAb 3H5 (antibody) | – | – | – | – | – | – | – | – | > 20 µg/mL | – | 0.15 µg/mL | –
3 | MAb 4G2 (antibody) | 100% | < 0.1% | < 0.1% | < 0.1% | < 0.1% | 100% | < 0.1% | < 0.1% | – | – | – | –
4 | MAb 6B6C-1 (antibody) | 50% | 100% | 0.8% | 12.5% | 3% | 100% | 50% | 100% | – | – | – | –
